Test results: the supplement of paper PMC9112550, “Optimization of the antimicrobial peptide Bac7 by deep mutational scanning” (BMC Biology, 2022)

Test system: Escherichia coli TOP10
Test: shrunken log2 fold change of peptide-encoding DNA abundance (4.5 h post-induction vs induction); higher = less antimicrobial activity (less host growth inhibition)
Conditions: time post-induction: 4.5 h; library: site-saturation at positions 5, 18, 19, 20
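Also: peptides expressed intracellularly from a pBAD plasmid library in pooled LB shake-flask culture, induced with 0.3% L-arabinose, DNA abundance read by NGS, three biological replicates, DESeq2 with apeglm shrinkage.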

| Sequence | shrunken log2 fold change |
| --- | --- |
| RRIRARPPRLPRPRPRPNPRPRP | 0.722 |
| RRIRRRPPRLPRPRPRPIQSPRP | 0.0301 |
| RRIRHRPPRLPRPRPRPQGRPRP | 0.027 |
| RRIRIRPPRLPRPRPRPWCNPRP | -0.33 |
| RRIRNRPPRLPRPRPRPLMVPRP | -0.254 |
| RRIRPRPPRLPRPRPRPVQVPRP | -0.119 |
| RRIRMRPPRLPRPRPRPTVWPRP | 0.736 |
| RRIRDRPPRLPRPRPRPLLQPRP | 0.287 |
| RRIRFRPPRLPRPRPRPNDHPRP | -0.512 |
| RRIRERPPRLPRPRPRPICWPRP | 0.0372 |
| RRIRVRPPRLPRPRPRPHNVPRP | -0.859 |
| RRIRWRPPRLPRPRPRPGCPPRP | 0.0461 |
| RRIRLRPPRLPRPRPRPGHAPRP | 0.21 |
| RRIRDRPPRLPRPRPRPFHIPRP | -0.254 |
| RRIRGRPPRLPRPRPRPSNMPRP | -0.113 |
| RRIRIRPPRLPRPRPRPQMHPRP | -0.494 |
| RRIRIRPPRLPRPRPRPNDEPRP | -0.781 |
| RRIRIRPPRLPRPRPRPGRVPRP | 0.0447 |
| RRIRMRPPRLPRPRPRPIFIPRP | 2.07 |
| RRIRLRPPRLPRPRPRPCFTPRP | -0.497 |
| RRIRFRPPRLPRPRPRPTKCPRP | 0.0225 |
| RRIRGRPPRLPRPRPRPDYDPRP | 0.157 |
| RRIRCRPPRLPRPRPRPILMPRP | -0.796 |
| RRIRMRPPRLPRPRPRPKWNPRP | 0.523 |
| RRIRCRPPRLPRPRPRPQWNPRP | 0.618 |

| Sequence | shrunken log2 fold change |
| --- | --- |
| RRIRNRPPRLPRPRPRPYKNPRP | -0.941 |
| RRIRGRPPRLPRPRPRPPLCPRP | 0.616 |
| RRIRNRPPRLPRPRPRPQWVPRP | 0.00681 |
| RRIRKRPPRLPRPRPRPKIFPRP | 0.0692 |
| RRIRPRPPRLPRPRPRPMQQPRP | -0.0524 |
| RRIRMRPPRLPRPRPRPGQVPRP | 0.418 |
| RRIRCRPPRLPRPRPRPMLYPRP | -0.189 |
| RRIRIRPPRLPRPRPRPLLSPRP | -0.483 |
| RRIRARPPRLPRPRPRPWERPRP | 0.12 |
| RRIRRRPPRLPRPRPRPWDLPRP | -0.04 |
| RRIRMRPPRLPRPRPRPCFWPRP | 0.237 |
| RRIRQRPPRLPRPRPRPKFSPRP | -0.914 |
| RRIRIRPPRLPRPRPRPTEVPRP | 0.232 |
| RRIRIRPPRLPRPRPRPSRRPRP | 0.35 |
| RRIRLRPPRLPRPRPRPNMAPRP | -0.511 |
| RRIRWRPPRLPRPRPRPFGNPRP | -0.0165 |
| RRIRARPPRLPRPRPRPINQPRP | -0.195 |
| RRIRCRPPRLPRPRPRPSETPRP | 0.108 |
| RRIRWRPPRLPRPRPRPVLGPRP | 0.241 |
| RRIRVRPPRLPRPRPRPMYGPRP | -0.116 |
| RRIRIRPPRLPRPRPRPRHSPRP | -0.646 |
| RRIRKRPPRLPRPRPRPHSGPRP | 0.066 |
| RRIRIRPPRLPRPRPRPICGPRP | -0.161 |
| RRIRTRPPRLPRPRPRPKDGPRP | -0.0362 |
| RRIRLRPPRLPRPRPRPPMQPRP | 0.189 |

| Sequence | shrunken log2 fold change |
| --- | --- |
| RRIRVRPPRLPRPRPRPDNWPRP | -0.343 |
| RRIRRRPPRLPRPRPRPDTDPRP | -0.108 |
| RRIRWRPPRLPRPRPRPKMPPRP | 1.71 |
| RRIRDRPPRLPRPRPRPNRPPRP | 0.0951 |
| RRIRERPPRLPRPRPRPNARPRP | -0.0167 |
| RRIRERPPRLPRPRPRPIEAPRP | -0.0164 |
| RRIRGRPPRLPRPRPRPVCAPRP | 1.06 |
| RRIRCRPPRLPRPRPRPNYGPRP | -0.297 |
| RRIRARPPRLPRPRPRPWMMPRP | -0.248 |
| RRIRIRPPRLPRPRPRPPIEPRP | 0.0545 |
| RRIRRRPPRLPRPRPRPNGQPRP | -0.00184 |
| RRIRCRPPRLPRPRPRPASSPRP | 0.124 |
| RRIRQRPPRLPRPRPRPWVAPRP | -0.182 |
| RRIRKRPPRLPRPRPRPRVDPRP | 0.0968 |
| RRIRNRPPRLPRPRPRPSFSPRP | -0.322 |
| RRIRRRPPRLPRPRPRPSAWPRP | 0.462 |
| RRIRFRPPRLPRPRPRPKRYPRP | 0.0178 |
| RRIRPRPPRLPRPRPRPKMMPRP | -0.032 |
| RRIRKRPPRLPRPRPRPIDDPRP | 0.0889 |
| RRIRHRPPRLPRPRPRPRGSPRP | -0.00481 |
| RRIRNRPPRLPRPRPRPCAWPRP | -0.147 |
| RRIRNRPPRLPRPRPRPQHWPRP | 0.13 |
| RRIRFRPPRLPRPRPRPGANPRP | -0.0673 |
| RRIRFRPPRLPRPRPRPNCVPRP | -0.321 |
| RRIRERPPRLPRPRPRPITPPRP | -0.628 |
